56 variants from article PMC10244618 can be followed below.

B1: NF2 (merlin) isoform 7, human, full length (507 aa, lacks exons 2-3 = isoform-1 residues 39-121; exon-16 C-terminus), P35240-4 (parent)
chain: MAGAIASRMSFSSLKRKQPKTFTVRIVTMDAEMEFNCEVKKQILDEKIYCPPEASVLLASYAVQAKYGDYDPSVHKRGFLAQEELLPKRVINLYQMTPEMWEERITAWYAEHRGRARDEAEMEYLKIAQDLEMYGVNYFAIRNKKGTELLLGVDALGLHIYDPENRLTPKISFPWNEIRNISYSDKEFTIKPLDKKIDVFKFNSSKLRVNKLILQLCIGNHDLFMRRRKADSLEVQQMKAQAREEKARKQMERQRLAREKQMREEAERTRDELERRLLQMKEEATMANEALMRSEETADLLAEKAQITEEEAKLLAQKAAEAEQEMQRIKATAIRTEEEKRLMEQKVLEAEVLALKMAEESERRAKEADQLKQDLQEAREAERRAKQKLLEIATKPTYPPMNPIPAPLPPDIPSFNLIGDSLSFDFKDTDMKRLSMEIEKEKVEYMEKSKHLQEQLNELKTEIEALKLKERETALDILHNENSDRGGSSKHNTIKKPQAQGRRPICI

Variants of B1 are the subject of the assay. Briefly: reverse yeast two-hybrid deep mutational scan (rY2H-seq): NF2 isoform 7 mutant library as bait mated with wild-type prey strains; selection on medium lacking adenine for non-interacting pairs; NextSeq paired-end sequencing; enrichment vs …. The following applies: yeast diploids after mating (RBait_S3 x RPrey_S3), 30 °C, selection for reporter genes on NB agar, HIGHER = WEAKER BINDING (the opposite of display enrichments): higher = stronger loss of interaction: reverse Y2H selects yeast in which bait and prey do NOT interact (growth without adenine), so a …, hits-only table, scale: rY2H score, numbering: uniprot, sequence starts at 1.

The mark [1] stands for this setting: with EMILIN1 (elastin microfibril interfacer 1), Q9Y6C2, human ABL2 co-expressed as the kinase-dead K35M mutant ….
Where [2] appears, read: with EMILIN1 (elastin microfibril interfacer 1), Q9Y6C2, human tyrosine kinase ABL2 co-expressed as the active kinase ….
The mark [3] stands for this setting: with KDM1A (lysine-specific histone demethylase 1A; the table's label AOF2 is a gene synonym of KDM1A), O60341, human ABL2 co-expressed as the kinase-dead K35M mutant ….
Setting [4] is: with KDM1A (lysine-specific histone demethylase 1A; the table's label AOF2 is a gene synonym of KDM1A), O60341, human tyrosine kinase ABL2 co-expressed as the active kinase ….
[5] abbreviates: with NF2 C-terminal domain (wild type; homomeric NF2-NF2 interaction), P35240, human ABL2 co-expressed as the kinase-dead K35M mutant …, partner unresolved.
Setting [6] is: with PIK3R3 (phosphatidylinositol 3-kinase regulatory subunit gamma), Q92569, human tyrosine kinase ABL2 co-expressed as the active kinase ….

Several values for one entry are separate records, joined by “and”; a condition that tells them apart may be missing. Equal entries are not always repeated.

With R335A, the enrichment reads like this: under setting [1], 35.1; under setting [2], 43.3; under setting [3], 67.9 and 31.8.

With R335K, the enrichment under setting [1] came out at 3.27; the enrichment under setting [2] worked out at 2.33; the enrichment under setting [3] is 4.54 and 2.35; the enrichment under setting [4] amounted to 3.19.

Turning to H479E, the enrichment under setting [1] stood at 3.67.

As for P413L, the enrichment under setting [1] is 1.88 and the enrichment under setting [2] turned out to be 2.88.

For A381K, the enrichment stood at 4.94 under setting [1], 10.4 under setting [2] and 6.12 under setting [4].

Turning to E360G, the enrichment by setting is: under setting [1], 2.14; under setting [3], 1.54.

E360K: the enrichment under setting [1] came out at 3.02.

Regarding H491K, the enrichment is, setting by setting: under setting [1], 1.7; under setting [5], 2.48.

For H491N, the enrichment under setting [1] amounted to 1.59.

In the case of H491A, the enrichment was found to be 5.29 under setting [1] and 2.04 under setting [2].

Regarding D299A, the enrichment under setting [1] was 1.54.

On to R268P, for which the enrichment under setting [1] came to 1.95.

For the variant R268K, the enrichment under setting [1] was 3.47.

For the variant Q376L, the enrichment is, setting by setting: under setting [1], 2.08; under setting [5], 3.07.

On to R341L, for which the enrichment is 2.12 and 2.16 under setting [1]; 4.47 and 2.73 under setting [3]; 1.59 under setting [5].

Regarding R341K, the enrichment reads like this: under setting [1], 2.64; under setting [2], 3.2; under setting [3], 7.07.

Consider R341E, for which the enrichment by setting is: under setting [1], 3.61; under setting [5], 2.88; under setting [6], 6.39.

With I329E, the enrichment by setting is: under setting [1], 2.28; under setting [2], 1.79 and 3.15; under setting [4], 3.19 and 2.75; under setting [5], 2.93.

On to I329L, for which the enrichment under setting [1] was determined as 3; the enrichment under setting [2] was 2.26 and 2.09; the enrichment under setting [3] was 4.07; the enrichment under setting [4] came out at 3.51; the enrichment under setting [5] is 1.91 and 3.47.

In the case of T397R, the enrichment reads like this: under setting [1], 2.87 and 2.64; under setting [3], 2.17.

On to T397A, for which the enrichment by setting is: under setting [1], 2.04; under setting [3], 1.66.

On to A350K, for which the enrichment is, setting by setting: under setting [1], 1.95; under setting [2], 4.8 and 3.36.

As to A378K, the enrichment runs as follows: under setting [1], 5.56; under setting [5], 4.21.

Regarding E325L, the enrichment is 2.13 under setting [1], 5.66 under setting [3] and 3.02 under setting [5].

As for L58P, the enrichment was 6.14 under setting [2]; 7.73 under setting [3]; 4.64 and 3.28 under setting [4]; 2.09 under setting [5]; 6.79 and 6.06 under setting [6].

Take L375E: the enrichment under setting [1] was determined as 3.04; the enrichment under setting [2] turned out to be 6.55; the enrichment under setting [4] was 2.39; the enrichment under setting [5] is 2.55 and 4.04; the enrichment under setting [6] was found to be 3.17.

Take E382G: the enrichment under setting [1] is 1.92.

As for E382K, the enrichment is 2.77 under setting [1]; 1.79 and 2.41 under setting [2]; 1.47 and 2.48 and 1.86 under setting [5].

Consider A385K, for which the enrichment is, setting by setting: under setting [1], 1.6; under setting [5], 3.03; under setting [6], 1.74.

In the case of A385L, the enrichment is 1.74 under setting [1]; 1.79 under setting [3]; 1.94 under setting [4]; 1.47 and 2.16 under setting [5].

As to K490E, the enrichment under setting [1] came out at 5.91.

On to M431E, for which the enrichment under setting [1] was determined as 5.53 and the enrichment under setting [3] worked out at 3.66.

For the variant M431A, the enrichment came out at 2.04 under setting [1] and 2.23 under setting [6].

In the case of M431K, the enrichment under setting [1] was determined as 2.78.

In the case of A322E, the enrichment under setting [1] was 3.28 and the enrichment under setting [5] worked out at 2.97.

Consider L390W, for which the enrichment under setting [1] came out at 1.53.

For the variant M357K, the enrichment under setting [1] was determined as 2.48.

On to A316S, for which the enrichment under setting [1] was 3.61.

Consider Y398F, for which the enrichment is, setting by setting: under setting [1], 1.39 and 2; under setting [2], 1.38 and 1.78; under setting [3], 1.87; under setting [4], 2.06.

As to Y398L, the enrichment by setting is: under setting [1], 1.89; under setting [2], 2.45; under setting [6], 1.96.

As to Y398E, the enrichment is 8.39 under setting [1]; 15.7 under setting [2]; 3.87 and 6.52 under setting [5].

Y398A: the enrichment is, setting by setting: under setting [1], 1.36; under setting [4], 3.19.

In the case of E274K, the enrichment under setting [1] was 1.67.

Consider A312G, for which, under setting [1], the enrichment was 1.62.

In the case of R263T, the enrichment under setting [1] amounted to 1.89.

With E323K, the enrichment amounted to 1.53 under setting [1], 1.69 under setting [2] and 4.79 under setting [6].

In the case of A331L, the enrichment was 2.6 and 2.58 under setting [1]; 3.27 under setting [2]; 4.61 and 1.64 under setting [3]; 5.02 under setting [4].

For A298K, the enrichment under setting [1] came to 1.79.

As to S60F, under setting [2], the enrichment was 3.78.

Turning to T332L, the enrichment runs as follows: under setting [1], 1.4; under setting [6], 2.31.

With T332D, the enrichment by setting is: under setting [1], 4.98 and 1.87; under setting [2], 2.07.

Consider S483A, for which the enrichment under setting [1] came out at 2.27; the enrichment under setting [2] is 3.86 and 4.2; the enrichment under setting [3] was determined as 2.24.

Take V39G: the enrichment under setting [2] turned out to be 1.41.

Take R383L: under setting [1], the enrichment is 3.93 and 2.71.

With L300E, the enrichment runs as follows: under setting [1], 5.44; under setting [2], 5.18; under setting [5], 4.73 and 3.13.

Regarding T308D, the enrichment by setting is: under setting [1], 4.89; under setting [2], 2.02; under setting [3], 2.33; under setting [5], 2.47.
